Series [1] deals with EPRS purified recombinant (UniProt P07814 1-1512). Kind of series: EMSA.
In a further series the target is T1, DDK/Myc tag peptide.
T1 chain: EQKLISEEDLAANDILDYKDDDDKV
The series is described as follows: EMSA. (In EMSA bound probe runs differently from free probe, usually more slowly.)

Sequence of EPRS purified recombinant (P07814 whole entry): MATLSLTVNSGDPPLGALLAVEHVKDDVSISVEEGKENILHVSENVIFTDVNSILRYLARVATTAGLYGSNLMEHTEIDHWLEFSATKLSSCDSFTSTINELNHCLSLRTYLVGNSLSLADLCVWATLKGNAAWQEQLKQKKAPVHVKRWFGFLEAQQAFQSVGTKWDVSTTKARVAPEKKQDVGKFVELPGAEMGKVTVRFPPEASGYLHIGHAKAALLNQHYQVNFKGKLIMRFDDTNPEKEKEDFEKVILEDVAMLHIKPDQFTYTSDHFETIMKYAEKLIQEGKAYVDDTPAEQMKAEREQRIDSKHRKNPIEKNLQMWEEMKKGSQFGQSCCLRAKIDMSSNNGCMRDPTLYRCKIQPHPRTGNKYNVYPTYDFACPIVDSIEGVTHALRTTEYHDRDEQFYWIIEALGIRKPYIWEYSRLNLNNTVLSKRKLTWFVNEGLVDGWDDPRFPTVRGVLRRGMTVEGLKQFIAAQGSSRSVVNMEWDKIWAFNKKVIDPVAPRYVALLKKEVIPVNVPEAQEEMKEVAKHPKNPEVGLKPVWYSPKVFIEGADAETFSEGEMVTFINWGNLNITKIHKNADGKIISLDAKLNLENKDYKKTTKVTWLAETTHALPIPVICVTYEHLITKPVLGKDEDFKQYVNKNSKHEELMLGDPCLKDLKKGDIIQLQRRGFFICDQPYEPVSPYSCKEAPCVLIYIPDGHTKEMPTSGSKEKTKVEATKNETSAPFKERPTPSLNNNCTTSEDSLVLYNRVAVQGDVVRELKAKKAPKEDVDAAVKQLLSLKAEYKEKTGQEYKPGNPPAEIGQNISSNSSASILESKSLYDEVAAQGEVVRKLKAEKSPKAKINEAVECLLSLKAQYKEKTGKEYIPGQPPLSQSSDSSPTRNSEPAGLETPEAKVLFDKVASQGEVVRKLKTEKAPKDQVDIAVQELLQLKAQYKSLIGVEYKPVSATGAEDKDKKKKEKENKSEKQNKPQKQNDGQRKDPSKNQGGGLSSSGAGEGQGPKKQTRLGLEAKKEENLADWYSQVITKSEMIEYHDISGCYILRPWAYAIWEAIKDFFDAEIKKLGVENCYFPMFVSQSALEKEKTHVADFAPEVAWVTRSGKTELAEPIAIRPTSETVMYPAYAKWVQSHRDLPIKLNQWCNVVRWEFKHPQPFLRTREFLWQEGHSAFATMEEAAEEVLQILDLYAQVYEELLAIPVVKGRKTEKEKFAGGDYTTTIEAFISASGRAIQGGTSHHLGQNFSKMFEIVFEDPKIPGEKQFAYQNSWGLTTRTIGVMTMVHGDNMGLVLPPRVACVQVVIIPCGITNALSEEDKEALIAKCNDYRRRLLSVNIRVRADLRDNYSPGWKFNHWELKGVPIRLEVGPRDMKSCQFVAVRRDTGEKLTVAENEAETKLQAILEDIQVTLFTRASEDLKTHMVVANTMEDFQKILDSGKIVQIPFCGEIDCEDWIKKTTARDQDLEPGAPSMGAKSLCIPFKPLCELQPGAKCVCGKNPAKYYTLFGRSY

As for AAUCUUAAAACUGUCAAUGACUUUAAUAUCUU (structured_RNA) [F2.2L (TGEV GAIT-like RNA motif)], the figures for the binding result (in series [1]; with DDK/Myc tag peptide) were “binds” and “no binding”, respectively.

These data come from publication PMC4453530.
